From patent publication US20250011363A1, “OPTIMIZED SHORTENED PEPTIDE THAT BINDS TO ACETYLCHOLINE RECEPTOR, AND USE THEREOF” (SKINMED CO., LTD., priority 2021, published 2025) come the findings set out here.

The assay has as its target acetylcholine receptor. In words: SPR, AchR immobilised on CM5 chip, peptide 10 uM. On the technique in general: In SPR one partner is held on a chip, and binding of the other changes the refractive index at the surface.

KYTFKR [6mer-2-718] returned a Binding affinity (RU) of 12 RU.

Molecule KCWWRR [6mer-2-695] showed a Binding affinity (RU) of 28 RU.

The molecule KNEKKR [6mer-2-741] showed a Binding affinity (RU) of 30 RU.

The molecule KEMIKR [6mer-2-702] returned a Binding affinity (RU) of 18 RU.

The molecule RIWPKR [6mer-2-709] returned a Binding affinity (RU) of 31 RU.

KIDVRK [6mer-2-714] gave a Binding affinity (RU) of 30 RU.

RASWRR [6mer-2-713] yielded a Binding affinity (RU) of 24 RU.

Molecule KHHKKK [6mer-2-726] registered a Binding affinity (RU) of 25 RU.

The molecule KHCHRR [6mer-2-734] returned a Binding affinity (RU) of 17 RU.

In turn, RIPNKR [6mer-2-757] displayed a Binding affinity (RU) of 19 RU.

For RHKMRK [6mer-2-691], the Binding affinity (RU) worked out at 15 RU.

In turn, RTWKRK [6mer-2-707] returned a Binding affinity (RU) of 21 RU.

As to KPTWRK [6mer-2-732], the Binding affinity (RU) was 24 RU.

KFTDRK [6mer-2-706] gave a Binding affinity (RU) of 23 RU.

For the molecule KNTERR [6mer-2-745], the Binding affinity (RU) came out at 17 RU.

For KFTMRK [6mer-2-690], the Binding affinity (RU) turned out to be 13 RU.

As for KASWKK [6mer-2-731], the Binding affinity (RU) stood at 19 RU.

As to RHSKKK [6mer-2-721], the Binding affinity (RU) stood at 26 RU.

As to KYTNRR [6mer-2-692], the Binding affinity (RU) amounted to 29 RU.

The molecule RFDEKK [6mer-2-759] showed a Binding affinity (RU) of 18 RU.

KDSIRK [6mer-2-694] registered a Binding affinity (RU) of 22 RU.

RDKERR [6mer-2-689] came in with a Binding affinity (RU) of 24 RU.

On to KPWFKK [6mer-2-738], for which the Binding affinity (RU) was determined as 29 RU.

On to RKCVKR [6mer-2-750], for which the Binding affinity (RU) was 29 RU.

Consider KMNAKK [6mer-2-735], for which the Binding affinity (RU) amounted to 21 RU.

RTPARK [6mer-2-733] gave a Binding affinity (RU) of 29 RU.

The molecule RIHAKK [6mer-2-739] returned a Binding affinity (RU) of 17 RU.

Turning to KINWRR [6mer-2-752], the Binding affinity (RU) amounted to 29 RU.

Regarding KNTIRR [6mer-2-693], the Binding affinity (RU) was 16 RU.

In the case of KDWHRK [6mer-2-704], the Binding affinity (RU) stood at 20 RU.

Molecule KNAGKR [6mer-2-699] showed a Binding affinity (RU) of 23 RU.

Consider RANFRR [6mer-2-747], for which the Binding affinity (RU) stood at 29 RU.

Molecule RYNDKK [6mer-2-755] had a Binding affinity (RU) of 18 RU.

As to RMTMKK [6mer-2-728], the Binding affinity (RU) was determined as 23 RU.

Turning to RFSFKK [6mer-2-758], the Binding affinity (RU) is 18 RU.

KFTKKK [6mer-2-696] showed a Binding affinity (RU) of 20 RU.

Consider RDMIKR [6mer-2-727], for which the Binding affinity (RU) came out at 11 RU.

With RAWVKK [6mer-2-708], the Binding affinity (RU) was found to be 29 RU.

The molecule KECGRR [6mer-2-711] came in with a Binding affinity (RU) of 29 RU.

In turn, RNEHRR [6mer-2-722] had a Binding affinity (RU) of 21 RU.

For RNTHKR [6mer-2-730], the Binding affinity (RU) amounted to 26 RU.

On to KCAVKK [6mer-2-697], for which the Binding affinity (RU) is 19 RU.

KCEDKK [6mer-2-698] gave a Binding affinity (RU) of 27 RU.

The molecule RPHWKR [6mer-2-751] gave a Binding affinity (RU) of 12 RU.

Take KIKPRR [6mer-2-719]: the Binding affinity (RU) was found to be 29 RU.

Take KDSVRR [6mer-2-737]: the Binding affinity (RU) is 19 RU.

Molecule KIDIRR [6mer-2-740] yielded a Binding affinity (RU) of 12 RU.

In turn, RNKKKK [6mer-2-710] gave a Binding affinity (RU) of 14 RU.

For RFDKKR [6mer-2-748], the Binding affinity (RU) was 28 RU.

As to KNNHKK [6mer-2-736], the Binding affinity (RU) amounted to 29 RU.

On to KCPGKR [6mer-2-717], for which the Binding affinity (RU) was 15 RU.

As to RTWKKR [6mer-2-716], the Binding affinity (RU) was 18 RU.

In turn, KHTMKR [6mer-2-743] returned a Binding affinity (RU) of 18 RU.

Consider RIKVRK [6mer-2-746], for which the Binding affinity (RU) was determined as 26 RU.

The molecule KDHPRK [6mer-2-744] showed a Binding affinity (RU) of 19 RU.

The molecule KNNWRR [6mer-2-742] gave a Binding affinity (RU) of 32 RU.

The molecule RATNRK [6mer-2-720] yielded a Binding affinity (RU) of 29 RU.

With KTWAKR [6mer-2-701], the Binding affinity (RU) amounted to 23 RU.

The molecule RENFKK [6mer-2-705] came in with a Binding affinity (RU) of 11 RU.

As to KYTMKK [6mer-2-724], the Binding affinity (RU) is 24 RU.

In the case of RATHRK [6mer-2-715], the Binding affinity (RU) worked out at 32 RU.

As to KPTNRK [6mer-2-756], the Binding affinity (RU) turned out to be 26 RU.

For KIPHRR [6mer-2-712], the Binding affinity (RU) was determined as 29 RU.

Turning to KEDMKR [6mer-2-723], the Binding affinity (RU) was 23 RU.

With RTMHKR [6mer-2-703], the Binding affinity (RU) is 14 RU.

For the molecule KMWKRK [6mer-2-749], the Binding affinity (RU) turned out to be 20 RU.

Take KADGRR [6mer-2-754]: the Binding affinity (RU) amounted to 12 RU.

In turn, RYEHRR [6mer-2-753] came in with a Binding affinity (RU) of 18 RU.

RCPDKR [6mer-2-729] showed a Binding affinity (RU) of 30 RU.

RPWHKK [6mer-2-700] displayed a Binding affinity (RU) of 15 RU.

The molecule KAHMKK [6mer-2-725] showed a Binding affinity (RU) of 25 RU.
